Data reported in IntAct's records for PubMed 19270079.

Biological target: pcd15_mouse Pcdh15 (UniProt Q99PJ1)
Sequence (Q99PJ1 whole entry): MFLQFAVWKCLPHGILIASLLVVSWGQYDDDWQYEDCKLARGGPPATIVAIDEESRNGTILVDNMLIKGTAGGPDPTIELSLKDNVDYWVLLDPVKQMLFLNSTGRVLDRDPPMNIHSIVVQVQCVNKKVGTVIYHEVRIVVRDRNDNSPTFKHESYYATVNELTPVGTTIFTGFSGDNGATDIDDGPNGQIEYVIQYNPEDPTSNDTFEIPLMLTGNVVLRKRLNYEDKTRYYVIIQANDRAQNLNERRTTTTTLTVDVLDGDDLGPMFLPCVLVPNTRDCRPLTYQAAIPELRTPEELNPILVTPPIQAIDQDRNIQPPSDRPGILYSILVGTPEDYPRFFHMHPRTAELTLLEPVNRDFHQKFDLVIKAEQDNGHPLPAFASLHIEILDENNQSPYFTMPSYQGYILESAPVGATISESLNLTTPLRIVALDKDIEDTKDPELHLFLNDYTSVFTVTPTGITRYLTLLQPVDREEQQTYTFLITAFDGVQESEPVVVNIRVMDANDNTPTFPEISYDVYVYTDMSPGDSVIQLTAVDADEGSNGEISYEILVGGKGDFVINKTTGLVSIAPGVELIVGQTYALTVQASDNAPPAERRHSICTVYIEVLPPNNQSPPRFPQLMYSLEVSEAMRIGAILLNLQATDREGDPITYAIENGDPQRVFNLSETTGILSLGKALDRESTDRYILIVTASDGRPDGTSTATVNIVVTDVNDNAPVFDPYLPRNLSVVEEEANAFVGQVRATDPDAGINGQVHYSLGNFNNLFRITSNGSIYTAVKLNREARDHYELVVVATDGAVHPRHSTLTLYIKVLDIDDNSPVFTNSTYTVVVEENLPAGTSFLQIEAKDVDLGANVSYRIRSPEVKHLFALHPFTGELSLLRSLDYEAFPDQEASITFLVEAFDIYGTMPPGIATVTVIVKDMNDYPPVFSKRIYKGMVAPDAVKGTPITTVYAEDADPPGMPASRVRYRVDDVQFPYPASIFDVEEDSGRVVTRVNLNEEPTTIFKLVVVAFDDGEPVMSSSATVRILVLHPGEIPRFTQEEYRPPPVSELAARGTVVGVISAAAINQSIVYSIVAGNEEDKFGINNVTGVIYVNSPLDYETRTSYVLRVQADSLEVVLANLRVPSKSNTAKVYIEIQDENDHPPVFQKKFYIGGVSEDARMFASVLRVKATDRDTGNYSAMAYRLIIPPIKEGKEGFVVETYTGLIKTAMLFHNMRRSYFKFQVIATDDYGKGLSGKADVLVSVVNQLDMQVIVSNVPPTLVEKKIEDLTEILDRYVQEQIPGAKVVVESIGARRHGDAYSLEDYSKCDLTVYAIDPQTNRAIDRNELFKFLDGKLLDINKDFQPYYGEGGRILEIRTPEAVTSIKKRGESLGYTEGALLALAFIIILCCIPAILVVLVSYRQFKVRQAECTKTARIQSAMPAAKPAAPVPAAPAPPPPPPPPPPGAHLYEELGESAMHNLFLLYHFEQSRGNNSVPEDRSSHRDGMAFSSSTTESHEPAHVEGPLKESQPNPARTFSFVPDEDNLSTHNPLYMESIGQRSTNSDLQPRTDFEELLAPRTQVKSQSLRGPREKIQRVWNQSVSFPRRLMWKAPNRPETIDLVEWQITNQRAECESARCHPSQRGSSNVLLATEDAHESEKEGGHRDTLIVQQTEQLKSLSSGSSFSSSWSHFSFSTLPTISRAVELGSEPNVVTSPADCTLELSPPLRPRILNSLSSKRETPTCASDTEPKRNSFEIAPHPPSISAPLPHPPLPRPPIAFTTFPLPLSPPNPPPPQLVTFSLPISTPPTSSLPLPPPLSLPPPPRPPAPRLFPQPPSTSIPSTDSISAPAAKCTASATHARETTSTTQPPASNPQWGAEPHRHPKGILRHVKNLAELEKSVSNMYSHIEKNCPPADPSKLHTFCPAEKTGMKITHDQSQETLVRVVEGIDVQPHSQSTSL

| effect of a mutation on the interaction | Substance |
| --- | --- |
| decreasing interaction | Cadherin-23 (Mus musculus), Q99PF4-1 D124G |
| decreasing interaction | Cadherin-23 (Mus musculus), Q99PF4-1 E737V |
| decreasing interaction | Cadherin-23 (Mus musculus), Q99PF4-1 R1060W |
